Experimental data: US20170335016A1 (Kyowa Kirin, published 2017)
Numbering of substitutions follows the chain as printed.

B1: DVD341VL34-341 (bispecific antibody, human IgG2, kappa)
heavy: EVQLVESGGGLVKPGGSLRLSCGGSGFTFNNAWMNWVRQAPGKGLEWVGRIKGKTDGGTADYAAPVKGRFTISRDYSKNTLYLQMNSLTTEDTAVYYCNTDLPYYYGSGRYSGMDVWGQGTTVTVSSASTKGPQVQLQQSGPGLVKPSQTLSLTCAISGDSVSSNSATWNWIRQSPSRDLEWLGRTYYRSKWYRDYVGSVKSRIIINPDTSNNQFSLQLNSVTPEDTAIYYCTRAQWLGGDYPYYYSMDVWGQGTTVTVSSASTKGPSVFPLAPCSRSTSESTAALGCLVKDYFPEPVTVSWNSGALTSGVHTFPAVLQSSGLYSLSSVVTVPSSNFGTQTYTCNVDHKPSNTKVDKTVERKCCVECPPCPAPPVAGPSVFLFPPKPKDTLMISRTPEVTCVVVDVSHEDPEVQFNWYVDGVEVHNAKTKPREEQFNSTFRVVSVLTVVHQDWLNGKEYKCKVSNKGLPASIEKTISKTKGQPREPQVYTLPPSREEMTKNQVSLTCLVKGFYPSDIAVEWESNGQPENNYKTTPPMLDSDGSFFLYSKLTVDKSRWQQGNVFSCSVMHEALHNHYTQKSLSLSPGK
light: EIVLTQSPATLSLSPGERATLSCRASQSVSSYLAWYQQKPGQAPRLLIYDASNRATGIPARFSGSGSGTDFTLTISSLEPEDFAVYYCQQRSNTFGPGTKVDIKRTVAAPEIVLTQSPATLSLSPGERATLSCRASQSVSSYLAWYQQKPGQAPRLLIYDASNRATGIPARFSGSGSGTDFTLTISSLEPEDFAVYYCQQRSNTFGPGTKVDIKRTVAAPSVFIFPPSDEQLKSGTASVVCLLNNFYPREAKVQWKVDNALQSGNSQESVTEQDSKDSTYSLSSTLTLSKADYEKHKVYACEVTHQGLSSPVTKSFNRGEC
notes: Comparison molecule with a short linker, after Wu et al. Entries probably still carry signal peptides; Tested as culture supernatant
B2: DVD341VL36-341 (bispecific antibody, human IgG2, kappa)
heavy: B1 heavy with T89K, A94G, N99T, D101Y, G109E, Y111W
light: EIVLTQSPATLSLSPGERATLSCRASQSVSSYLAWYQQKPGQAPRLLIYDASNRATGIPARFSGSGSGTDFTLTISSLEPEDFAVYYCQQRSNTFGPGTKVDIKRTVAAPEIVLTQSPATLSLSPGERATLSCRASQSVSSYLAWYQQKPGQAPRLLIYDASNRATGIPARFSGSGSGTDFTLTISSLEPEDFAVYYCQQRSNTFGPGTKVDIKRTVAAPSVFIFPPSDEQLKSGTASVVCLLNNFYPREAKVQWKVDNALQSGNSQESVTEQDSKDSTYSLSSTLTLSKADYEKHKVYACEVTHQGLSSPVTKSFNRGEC
notes: as for B1
B3: multivalent antibody 341VL34-CH1-341 (bispecific antibody)
heavy: EVQLVESGGGLVKPGGSLRLSCGGSGFTFNNAWMNWVRQAPGKGLEWVGRIKGKTDGGTADYAAPVKGRFTISRDYSKNTLYLQMNSLTTEDTAVYYCNTDLPYYYGSGRYSGMDVWGQGTTVTVSSASTKGPSVFPLAPCSRSTSESTAALGCLVKDYFPEPVTVSWNSGALTSGVHTFPAVLQSSGLYSLSSVVTVPSSNFGTQTYTCNVDHKPSNTKVDKTVGSQVQLQQSGPGLVKPSQTLSLTCAISGDSVSSNSATWNWIRQSPSRDLEWLGRTYYRSKWYRDYVGSVKSRIIINPDTSNNQFSLQLNSVTPEDTAIYYCTRAQWLGGDYPYYYSMDVWGQGTTVTVSSASTKGPSVFPLAPCSRSTSESTAALGCLVKDYFPEPVTVSWNSGALTSGVHTFPAVLQSSGLYSLSSVVTVPSSNFGTQTYTCNVDHKPSNTKVDKTVERKCCVECPPCPAPPVAGPSVFLFPPKPKDTLMISRTPEVTCVVVDVSHEDPEVQFNWYVDGVEVHNAKTKPREEQFNSTFRVVSVLTVVHQDWLNGKEYKCKVSNKGLPASIEKTISKTKGQPREPQVYTLPPSREEMTKNQVSLTCLVKGFYPSDIAVEWESNGQPENNYKTTPPMLDSDGSFFLYSKLTVDKSRWQQGNVFSCSVMHEALHNHYTQKSLSLSPGK
light: EIVLTQSPATLSLSPGERATLSCRASQSVSSYLAWYQQKPGQAPRLLIYDASNRATGIPARFSGSGSGTDFTLTISSLEPEDFAVYYCQQRSNTFGPGTKVDIK
notes: Anti-CD28 site N-terminal, anti-CD40 site C-terminal; Tested as culture supernatant; not shown: human immunoglobulin kappa light chain constant region
B4: multivalent antibody 341-CH1-341VL34 (bispecific antibody)
heavy: QVQLQQSGPGLVKPSQTLSLTCAISGDSVSSNSATWNWIRQSPSRDLEWLGRTYYRSKWYRDYVGSVKSRIIINPDTSNNQFSLQLNSVTPEDTAIYYCTRAQWLGGDYPYYYSMDVWGQGTTVTVSSASTKGPSVFPLAPCSRSTSESTAALGCLVKDYFPEPVTVSWNSGALTSGVHTFPAVLQSSGLYSLSSVVTVPSSNFGTQTYTCNVDHKPSNTKVDKTVGSEVQLVESGGGLVKPGGSLRLSCGGSGFTFNNAWMNWVRQAPGKGLEWVGRIKGKTDGGTADYAAPVKGRFTISRDYSKNTLYLQMNSLTTEDTAVYYCNTDLPYYYGSGRYSGMDVWGQGTTVTVSSASTKGPSVFPLAPCSRSTSESTAALGCLVKDYFPEPVTVSWNSGALTSGVHTFPAVLQSSGLYSLSSVVTVPSSNFGTQTYTCNVDHKPSNTKVDKTVERKCCVECPPCPAPPVAGPSVFLFPPKPKDTLMISRTPEVTCVVVDVSHEDPEVQFNWYVDGVEVHNAKTKPREEQFNSTFRVVSVLTVVHQDWLNGKEYKCKVSNKGLPASIEKTISKTKGQPREPQVYTLPPSREEMTKNQVSLTCLVKGFYPSDIAVEWESNGQPENNYKTTPPMLDSDGSFFLYSKLTVDKSRWQQGNVFSCSVMHEALHNHYTQKSLSLSPGK
light: B3 light
notes: Anti-CD40 site N-terminal, anti-CD28 site C-terminal; Tested as culture supernatant; not shown: human immunoglobulin kappa light chain constant region
B5: anti-CD28 antibody 341VL34 (antibody, V domains shown)
VH: EVQLVESGGGLVKPGGSLRLSCGGSGFTFNNAWMNWVRQAPGKGLEWVGRIKGKTDGGTADYAAPVKGRFTISRDYSKNTLYLQMNSLTTEDTAVYYCNTDLPYYYGSGRYSGMDVWGQGTTVTVSS
VL: B3 light
notes: Made in the N5KG2Ser vector; Tested as culture supernatant; not shown: human immunoglobulin kappa light chain constant region
B6: anti-CD40 antibody 341-1-19 (antibody, IgG2, V domains shown)
VH: QVQLQQSGPGLVKPSQTLSLTCAISGDSVSSNSATWNWIRQSPSRDLEWLGRTYYRSKWYRDYVGSVKSRIIINPDTSNNQFSLQLNSVTPEDTAIYYCTRAQWLGGDYPYYYSMDVWGQGTTVTVSS
VL: B3 light
notes: IgG2; Tested as culture supernatant; also called antibody produced by hybridoma KM341-1-19; not shown: human immunoglobulin kappa light chain constant region; kappa inferred from the anti-human κ detecti
B7: anti-CD28 antibody 341VL36 (antibody, V domains shown)
VH: B5 VH with T89K, A94G, N99T, D101Y, G109E, Y111W
VL: B3 light
notes: as for B5
B8: multivalent antibody 341-CH1-341VL36 (bispecific antibody)
heavy: B4 heavy with T317K, A322G, N327T, D329Y, G337E, Y339W
light: B3 light
notes: Anti-CD40 site N-terminal, anti-CD28 site C-terminal; Entry probably still carries the signal peptide; Tested as culture supernatant; not shown: human immunoglobulin kappa light chain constant region
B9: multivalent antibody 341VL36-CH1-341 (bispecific antibody)
heavy: B3 heavy with T89K, A94G, N99T, D101Y, G109E, Y111W
light: B3 light
notes: Anti-CD28 site N-terminal, anti-CD40 site C-terminal; Entry probably still carries the signal peptide; Tested as culture supernatant; not shown: human immunoglobulin kappa light chain constant region
B10: multivalent antibody 341VL36-CH1-H-CH2-CH3-341-CH1 (bispecific antibody)
heavy: EVQLVESGGGLVKPGGSLRLSCGGSGFTFNNAWMNWVRQAPGKGLEWVGRIKGKTDGGTADYAAPVKGRFTISRDYSKNTLYLQMNSLKTEDTGVYYCTTYLPYYYGSERWSGMDVWGQGTTVTVSSASTKGPSVFPLAPCSRSTSESTAALGCLVKDYFPEPVTVSWNSGALTSGVHTFPAVLQSSGLYSLSSVVTVPSSNFGTQTYTCNVDHKPSNTKVDKTVERKCCVECPPCPAPPVAGPSVFLFPPKPKDTLMISRTPEVTCVVVDVSHEDPEVQFNWYVDGVEVHNAKTKPREEQFNSTFRVVSVLTVVHQDWLNGKEYKCKVSNKGLPASIEKTISKTKGQPREPQVYTLPPSREEMTKNQVSLTCLVKGFYPSDIAVEWESNGQPENNYKTTPPMLDSDGSFFLYSKLTVDKSRWQQGNVFSCSVMHEALHNHYTQKSLSLSPGKGSQVQLQQSGPGLVKPSQTLSLTCAISGDSVSSNSATWNWIRQSPSRDLEWLGRTYYRSKWYRDYVGSVKSRIIINPDTSNNQFSLQLNSVTPEDTAIYYCTRAQWLGGDYPYYYSMDVWGQGTTVTVSSASTKGPSVFPLAPCSRSTSESTAALGCLVKDYFPEPVTVSWNSGALTSGVHTFPAVLQSSGLYSLSSVVTVPSSNFGTQTYTCNVDHKPSNTKVDKTV
light: B3 light
notes: Entry probably still carries the signal peptide; Tested as culture supernatant; not shown: human immunoglobulin kappa light chain constant region
B11: 341VL34 scFv (scFv)
scFv: EVQLVESGGGLVKPGGSLRLSCGGSGFTFNNAWMNWVRQAPGKGLEWVGRIKGKTDGGTADYAAPVKGRFTISRDYSKNTLYLQMNSLTTEDTAVYYCNTDLPYYYGSGRYSGMDVWGQGTTVTVSSGGGGSGGRASGGGGSEIVLTQSPATLSLSPGERATLSCRASQSVSSYLAWYQQKPGQAPRLLIYDASNRATGIPARFSGSGSGTDFTLTISSLEPEDFAVYYCQQRSNTFGPGTKVDIK
notes: phage culture supernatant
B12: 341VL36 scFv (scFv)
scFv: B11 scFv with T89K, A94G, N99T, D101Y, G109E, Y111W
notes: phage culture supernatant

molecular target: T1, human-CD28-Fc fusion protein (human, UniProt P10747 19-152); experiment: ELISA, human-CD28-Fc coated at 1 µg/mL, culture supernatant, anti-human κ HRP detection
T1 construct: also called Fc fusion protein of the human-CD28 extracellular domain with IgG; hECD28-Fc
Procedure: (§1) The human-CD4O-Fc fusion protein and the human-CD28-Fc fusion protein were adjusted to give a concentration of 1 μg/mL using coating buffer (50 mM carbonate buffer, pH 9). To a well, 50 μL/well of the obtained human-CD4O-Fc fusion prostein or the obtained human-CD28-Fc fusion protein was added into the Maxisorp Plate (manufactured by Nalge Nunc International) respectively, and incubated at 4° C. overnight to be immobilized. Then, 200 μL/well of blocking reagent (SuperBlock (registered trademark) Blocking Buffer, manufactured by Pierce Protein Research) was added to the well, followed by incubation at room temperature for 30 minutes for blocking. Then, 50 μL/well of the culture supernatant comprising each antibody obtained in above Examples was added to the well followed by incubation at room temperature for 1 hour. After washing three times with Washing buffer (0.1% Tween20-TBS), Affinity Isolated Antibody HRP Conjugated Goat F(ab)₂ anti-Human κ (manufactured by EY Laboratories Inc) was diluted with assay diluent (0.1% Tween20-TBS containing Block Ace manufactured by Dainippon Sumitomo Pharma Co. Ltd. by 10%). Then, 50 μL of the obtained solution was added to each well followed by incubation at a room temperature for 1 hour. After washing three times with washing buffer, 50 μL of TMB (manufactured by Dako) coloring substrate solution was added to each well, followed by incubation in a dark room at room temperature. After developping color, 0.5 M vitriol (50 μL/well) was added to stop the reaction. The absorbance at the wavelength of 450 nm was measured with a microplate reader (SPECTRAMAX190, manufactured by Molecular Devices Inc).

T1 sequence (P10747 19-152): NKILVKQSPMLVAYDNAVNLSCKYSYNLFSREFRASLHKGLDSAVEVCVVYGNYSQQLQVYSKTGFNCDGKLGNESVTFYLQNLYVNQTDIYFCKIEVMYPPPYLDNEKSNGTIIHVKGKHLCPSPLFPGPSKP

Q: Does B1 bind?
A: binds

Q: Does B2 bind?
A: binds

Q: Does B3 bind?
A: binds

Q: Does B4 bind?
A: binds

Q: Does B5 bind?
A: binds

Q: Does B6 bind?
A: no binding

Q: Does B7 bind?
A: binds

Q: Does B8 bind?
A: binds

Q: Does B9 bind?
A: binds

Q: Does B10 bind?
A: binds

molecular target: T2, human-CD40-Fc fusion protein (human, UniProt P25942 21-193); experiment: ELISA, human-CD40-Fc coated at 1 µg/mL, culture supernatant, anti-human κ HRP detection
T2 construct: also called human-CD4O-Fc fusion protein; not shown: Fc part; origin and limits not described
Procedure: as §1, with “After washing three times with washing buffer, 50 μL of TMB (manufactured by Dako) coloring substrate solution was added to each well, followed by incubation in a dark room at room temperature. After developping color, 0.5 M vitriol (50 μL/well) was added to stop the reaction.” left out

T2 sequence (P25942 21-193 limits assumed): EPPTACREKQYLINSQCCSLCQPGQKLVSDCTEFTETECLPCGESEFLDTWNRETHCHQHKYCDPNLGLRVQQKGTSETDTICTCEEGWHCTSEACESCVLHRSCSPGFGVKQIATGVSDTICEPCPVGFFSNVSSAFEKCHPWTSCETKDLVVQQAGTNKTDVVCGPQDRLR

Q: Does B5 bind?
A: no binding

Q: Does B7 bind?
A: no binding

molecular target: T1, human-CD28-Fc fusion protein; experiment: phage ELISA, human-CD28-Fc coated at 2 µg/mL, anti-E tag HRP detection
Procedure: Each single colony obtained from the antibody library to which the panning had been applied was seeded in 200 μL of 2×YTAG culture medium and subjected to a shaking culture at 30° C. for 4 to 5 hours. Then, 200 μL of 1×10¹⁰ pfu/mL M13KO helper phage was added to the culture solution for the infection (the shaking culture at 30° C. for 1 hour). After changing the culture medium to 2×YTAK, the shaking culture was carried out at 30° C. overnight. The binding property to the antigen was examined by the following steps (ELISA) using this culture supernatant as a phage solution.
The human-CD28-Fc fusion protein was diluted with Coating buffer (50 mM carbonate buffer, pH 9) to give a concentration of 2 μg/mL. The obtained solution was put into the Maxisorp Plate (manufactured by Nalge Nunc International) at 50 μL/well and incubated at 4° C. overnight to be immobilized. Then, to the well, 200 μL/well of blocking reagent (SuperBlock (registered trademark) Blocking Buffer, manufactured by Pierce Protein Research) was added, the resulting object was incubated at a room temperature for 30 minutes to complete the blocking. To the well, 50 μL/well of each phage solution was added, and incubated at a room temperature for 1 hour. […] The absorbance at the wavelength of 450 nm was measured with a microplate reader (SPECTRAMAX190, manufactured by Molecular Devices Inc).

Q: Does B11 bind?
A: binds

Q: Does B12 bind?
A: binds
